Measurements: the Immune Epitope Database (IEDB)

Tests used:
HLA-B*57:01 [1] = test: IEDB peptide-MHC binding, purified MHC/competitive/radioactivity; filed as Kd, often an IC50 or EC50 that approximates it; ≥ and ≤ were set here for values at or beyond the usual limits of such assays
HLA-B*58:01 [2] = test: as above
HLA-A*02:01 [3] = test: as above
HLA-A*02:03 [4] = test: as above
HLA-A*02:06 = test: as above
HLA-A*02:17 = test: as above
HLA-A*32:01 = test: as above
HLA-B*48:01 = test: IEDB peptide-MHC binding, purified MHC/direct/fluorescence; filed as Kd, often an IC50 or EC50 that approximates it; ≥ and ≤ were set here for values at or beyond the usual limits of such assays
HLA-A*31:01 [5] = test: IEDB peptide-MHC binding, purified MHC/competitive/radioactivity; filed as Kd, often an IC50 or EC50 that approximates it; ≥ and ≤ were set here for values at or beyond the usual limits of such assays; conditions: source organism: Dengue virus 2 Jamaica/1409/1983
HLA-B*08:01 = test: as above
HLA-A*69:01 [6] = test: IEDB peptide-MHC binding, purified MHC/direct/fluorescence; filed as Kd, often an IC50 or EC50 that approximates it; ≥ and ≤ were set here for values at or beyond the usual limits of such assays
HLA-A*01:01 = test: as above
HLA-A*69:01 [7] = test: IEDB peptide-MHC binding, purified MHC/competitive/fluorescence; filed as Kd, often an IC50 or EC50 that approximates it; ≥ and ≤ were set here for values at or beyond the usual limits of such assays; conditions: source organism: Homo sapiens
HLA-B*15:01 [8] = test: as above
HLA-B*27:03 = test: as above; conditions: source organism: Homo sapiens
HLA-B*39:01 = test: as above; conditions: source organism: Homo sapiens
HLA-B*46:01 = test: as above; conditions: source organism: Homo sapiens
HLA-B*51:01 = test: as above; conditions: source organism: Homo sapiens
HLA-B*57:01 [9] = test: as above
HLA-B*18:01 = test: IEDB peptide-MHC binding, purified MHC/direct/fluorescence; filed as Kd, often an IC50 or EC50 that approximates it; ≥ and ≤ were set here for values at or beyond the usual limits of such assays
HLA-A*02:01 [10] = test: IEDB peptide-MHC binding, purified MHC/competitive/fluorescence; filed as Kd, often an IC50 or EC50 that approximates it; ≥ and ≤ were set here for values at or beyond the usual limits of such assays; conditions: source organism: human gammaherpesvirus 4
HLA-A*02:03 [11] = test: as above; conditions: source organism: human gammaherpesvirus 4
HLA-A*68:02 = test: IEDB peptide-MHC binding, purified MHC/competitive/radioactivity; filed as Kd, often an IC50 or EC50 that approximates it; ≥ and ≤ were set here for values at or beyond the usual limits of such assays; conditions: source organism: Dengue virus 4 Philippines/H241/1956
HLA-A*02:01 [12] = test: IEDB peptide-MHC binding, purified MHC/direct/fluorescence; filed as Kd, often an IC50 or EC50 that approximates it; ≥ and ≤ were set here for values at or beyond the usual limits of such assays; conditions: source organism: Escherichia coli O157:H7
HLA-A*03:01 = test: as above; conditions: source organism: Escherichia coli O157:H7
HLA-A*11:01 = test: as above; conditions: source organism: Escherichia coli O157:H7
HLA-A*31:01 [13] = test: as above; conditions: source organism: Escherichia coli O157:H7
HLA-B*27:05 = test: as above; conditions: source organism: Escherichia coli O157:H7
HLA-B*40:01 = test: as above; conditions: source organism: Escherichia coli O157:H7
HLA-B*58:01 [14] = test: as above; conditions: source organism: Escherichia coli O157:H7
HLA-B*15:17 = test: IEDB peptide-MHC binding, purified MHC/competitive/fluorescence; filed as Kd, often an IC50 or EC50 that approximates it; ≥ and ≤ were set here for values at or beyond the usual limits of such assays; conditions: source organism: Escherichia coli str. K-12 substr. DH10B
HLA-B*15:01 [15] = test: IEDB peptide-MHC binding, purified MHC/competitive/radioactivity; filed as Kd, often an IC50 or EC50 that approximates it; ≥ and ≤ were set here for values at or beyond the usual limits of such assays; conditions: source organism: Dengue virus 2 Jamaica/1409/1983
[16] = source organism: Dengue virus 3 Martinique/1243/1999
[17] = source organism: Dengue virus 4 Dominica/814669/1981
[18] = source organism: Dengue virus 4 Philippines/H241/1956
[19] = source organism: Dengue virus 2 Jamaica/1409/1983
[20] = source organism: Dengue virus 1 Singapore/S275/1990
[21] = source organism: Dengue virus 1 Brazil/97-11/1997
[22] = source organism: Dengue virus 1 Nauru/West Pac/1974
[23] = source organism: Yellow fever virus
[24] = source organism: Escherichia coli O157:H7
[25] = source organism: Escherichia coli str. K-12 substr. DH10B

## ASSLLRNDVP
HLA-B*57:01 [1]; [16]
  Kd: 11600 nM
HLA-B*58:01 [2]; [16]
  Kd: 745 nM

## ATGPILTLW
HLA-B*57:01 [1]; [17]
  Kd: 8.07 nM
HLA-B*58:01 [2]; [17]
  Kd: 13.1 nM

## AVASGLLWV
HLA-A*02:01 [3]; [18]
  Kd: 18.9 nM
HLA-A*02:03 [4]; [18]
  Kd: 1.89 nM
HLA-A*02:06; [18]
  Kd: 11.7 nM
HLA-A*02:17; [18]
  Kd: 3300 nM

## ERSWNSGHEW
HLA-B*58:01 [2]; [19]
  Kd: 135 nM

## FLAHYIGTSL
HLA-A*02:03 [4]; [16]
  Kd: 3.3 nM
HLA-A*02:17; source organism: Dengue virus 3 China/80-2/1980
  Kd: 22.5 nM

## FLDLPLPWL
HLA-A*02:01 [3]; [19]
  Kd: 10.3 nM
HLA-A*02:06; [19]
  Kd: 127 nM
HLA-A*02:17; [19]
  Kd: 9.46 nM

## FLNEDHWFS
HLA-A*02:01 [3]; [19]
  Kd: 4 nM
HLA-A*02:17; [19]
  Kd: 185 nM

## GLLCLTLFV
HLA-A*02:01 [3]; [18]
  Kd: 2.44 nM
HLA-A*02:06; [18]
  Kd: 16.4 nM
HLA-A*02:17; [18]
  Kd: 8.47 nM

## GLLFMILTV
HLA-A*02:01 [3]; [20]
  Kd: 42.9 nM
HLA-A*02:17; [20]
  Kd: 14300 nM
HLA-A*32:01; [21]
  Kd: ≥ 77800 nM

## GLNTFTNMEV
HLA-A*02:01 [3]; [18]
  Kd: 3.82 nM
HLA-A*02:03 [4]; [21]
  Kd: 15.3 nM
HLA-A*02:17; [18]
  Kd: 421 nM

## GQPIPIAGL
HLA-B*48:01; source organism: Mycobacterium tuberculosis C
  Kd: 299 nM

## HSSAAQRRGR
HLA-A*31:01 [5]
  Kd: 24.1 nM
HLA-B*57:01 [1]; [19]
  Kd: 71.8 nM
HLA-B*58:01 [2]; [19]
  Kd: 11300 nM

## ILLTAVAPSM
HLA-A*02:01 [3]; [19]
  Kd: 2490 nM
HLA-A*02:17; [19]
  Kd: 5960 nM
HLA-B*08:01; [19]
  Kd: 8710 nM

## IMAVGLVSL
HLA-A*69:01 [6]; source organism: dengue virus type 4
  Kd: ≥ 20000 nM
HLA-A*02:03 [4]; [18]
  Kd: 0.16 nM
HLA-A*02:17; [18]
  Kd: 802 nM

## IMAVGMVSI
HLA-A*02:03 [4]; [19]
  Kd: 8.29 nM
HLA-A*02:17; [19]
  Kd: 785 nM
HLA-A*32:01; [19]
  Kd: 20.4 nM

## KLARASFIEV
HLA-A*02:01 [3]; [20]
  Kd: 14.9 nM
HLA-A*02:03 [4]; [21]
  Kd: 20.1 nM
HLA-A*02:06; [21]
  Kd: 22 nM
HLA-A*02:17; [20]
  Kd: 705 nM

## KSWLVHKQW
HLA-A*32:01; [21]
  Kd: 16.9 nM
HLA-B*57:01 [1]; [21]
  Kd: 5.87 nM
HLA-B*58:01 [2]; [21]
  Kd: 3.03 nM

## KSYAQMWTL
HLA-A*32:01; [19]
  Kd: 16.4 nM
HLA-B*57:01 [1]; [19]
  Kd: 6.59 nM
HLA-B*58:01 [2]; [19]
  Kd: 6.37 nM

## KTQAIDGEF
HLA-A*32:01; [17]
  Kd: 640 nM
HLA-B*58:01 [2]; [17]
  Kd: 287 nM

## KTQRSGALW
HLA-B*57:01 [1]; [18]
  Kd: 105 nM
HLA-B*58:01 [2]; [18]
  Kd: 6.11 nM

## LMLLALIAVL
HLA-A*02:01 [3]; [20]
  Kd: 94.7 nM
HLA-A*02:17; [20]
  Kd: 2170 nM
HLA-B*08:01; [21]
  Kd: 2250 nM

## MASSVLLWMA
HLA-A*02:06; [20]
  Kd: 90.6 nM
HLA-B*57:01 [1]; [20]
  Kd: 859 nM
HLA-B*58:01 [2]; [20]
  Kd: 223 nM

## MSSEGAWKHA
HLA-B*57:01 [1]; [18]
  Kd: 134 nM
HLA-B*58:01 [2]; [18]
  Kd: 254 nM

## NTAINFFLY
HLA-A*01:01; source organism: Homo sapiens
  Kd: 3.6 nM
HLA-A*69:01 [7]
  Kd: ≥ 20000 nM
HLA-B*15:01 [8]; source organism: Homo sapiens
  Kd: ≥ 20000 nM
HLA-B*27:03
  Kd: ≥ 20000 nM
HLA-B*39:01
  Kd: ≥ 20000 nM
HLA-B*46:01
  Kd: ≥ 20000 nM
HLA-B*51:01
  Kd: ≥ 20000 nM
HLA-B*57:01 [9]; source organism: Homo sapiens
  Kd: ≥ 20000 nM

## RRYGGGLVR
HLA-B*48:01; source organism: West Nile virus
  Kd: ≥ 20000 nM

## RVMGITAEW
HLA-A*32:01; [16]
  Kd: 35.9 nM
HLA-B*57:01 [1]; [16]
  Kd: 2.97 nM
HLA-B*58:01 [2]; [16]
  Kd: 0.824 nM

## SESLPIWGI
HLA-B*18:01; source organism: Cryptosporidium parvum Iowa II
  Kd: 13700 nM

## SLLFKTSAGV
HLA-A*02:01 [3]; [22]
  Kd: 21.6 nM
HLA-A*02:03 [4]; [21]
  Kd: 287 nM
HLA-A*02:06; [21]
  Kd: 35.8 nM
HLA-A*02:17; [22]
  Kd: 820 nM

## SSSNPTIEEG
HLA-B*58:01 [2]; [18]
  Kd: 5990 nM

## SVRDRLARL
HLA-A*02:01 [10]
  Kd: 407 nM
HLA-A*02:03 [11]
  Kd: 12.3 nM

## TASLVMLLVH
HLA-B*57:01 [1]; [17]
  Kd: 7390 nM
HLA-B*58:01 [2]; [17]
  Kd: 1350 nM

## TIMAVLFVV
HLA-A*02:01 [3]; [18]
  Kd: 92.6 nM
HLA-A*02:03 [4]; [18]
  Kd: 46.7 nM
HLA-A*02:06; [18]
  Kd: 127 nM
HLA-A*02:17; [18]
  Kd: 789 nM
HLA-A*68:02
  Kd: 43.4 nM

## TMKEKSWLV
HLA-A*02:01 [3]; [20]
  Kd: 54.7 nM
HLA-A*02:03 [4]; [21]
  Kd: 94.6 nM
HLA-A*02:17; [20]
  Kd: 40.3 nM

## VQGFIFFFL
HLA-B*18:01; [23]
  Kd: ≥ 5000 nM

## VSRDFDDVY
HLA-A*01:01; [24]
  Kd: 18600 nM
HLA-A*02:01 [12]
  Kd: ≥ 20000 nM
HLA-A*03:01
  Kd: ≥ 20000 nM
HLA-A*11:01
  Kd: ≥ 20000 nM
HLA-A*31:01 [13]
  Kd: ≥ 20000 nM
HLA-A*69:01 [6]; [24]
  Kd: ≥ 20000 nM
HLA-B*27:05
  Kd: ≥ 20000 nM
HLA-B*40:01
  Kd: ≥ 20000 nM
HLA-B*48:01; [24]
  Kd: ≥ 20000 nM
HLA-B*58:01 [14]
  Kd: ≥ 20000 nM
HLA-B*15:01 [8]; [25]
  Kd: 244 nM
HLA-B*15:17
  Kd: ≥ 20000 nM
HLA-B*57:01 [9]; [25]
  Kd: 792 nM

## YQLAVTIMAI
HLA-A*02:01 [3]; [19]
  Kd: 32.3 nM
HLA-A*02:03 [4]; [19]
  Kd: 11.2 nM
HLA-A*02:06; [19]
  Kd: 11.3 nM
HLA-A*02:17; [19]
  Kd: 7840 nM
HLA-B*15:01 [15]
  Kd: 15.8 nM

## YRNALSMMP
HLA-B*48:01; [23]
  Kd: ≥ 20000 nM
